Source: paper PMC10897365, “Molecular mechanism of allosteric activation of the CRISPR ribonuclease Csm6 by cyclic tetra-adenylate” (The EMBO Journal, 2023)
Where a chain is given by its changes, count along the chain named. In names and notes the source's numbering stands.

Assays:
TtCsm6 = target: T1, TtCsm6 (Thermus thermophilus, UniProt Q53W17); experiment: crystal structure […] Å (co-crystallised with cA4); format: binding; details: post-cleavage state; two A2>P across the CARF dimer interface; pH 8.5, Mg2+ in crystal
T1 construct: gene csm6; synthesized gene, N-terminal 6xHis tag removed with PreScission protease; expressed in E. coli Rosetta (DE3); homodimer; CARF-HTH-HEPN
T1 sequence (Q53W17 1-464): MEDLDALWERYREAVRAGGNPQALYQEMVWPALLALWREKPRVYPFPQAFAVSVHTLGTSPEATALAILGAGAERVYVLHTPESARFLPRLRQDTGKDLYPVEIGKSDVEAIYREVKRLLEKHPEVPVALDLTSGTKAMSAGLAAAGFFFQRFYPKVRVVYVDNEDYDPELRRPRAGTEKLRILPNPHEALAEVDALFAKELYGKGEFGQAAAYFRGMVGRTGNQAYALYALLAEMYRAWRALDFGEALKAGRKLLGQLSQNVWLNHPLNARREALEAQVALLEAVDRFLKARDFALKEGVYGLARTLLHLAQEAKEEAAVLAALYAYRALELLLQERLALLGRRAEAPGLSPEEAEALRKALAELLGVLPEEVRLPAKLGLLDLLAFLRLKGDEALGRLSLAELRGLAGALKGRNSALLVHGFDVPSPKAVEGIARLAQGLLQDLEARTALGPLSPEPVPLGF

[1] = target: the molecule itself; experiment: crystal structure; TtCsm6 (12 mg/mL) pre-incubated with cA4 1:1.2 for 3 h at room temperature; hanging drop, 25 °C; post-cleavage state with two A2>P bound; homodimer
[2] = target: the molecule itself; experiment: crystal structure; TtCsm6 Y161A (10 mg/ml) pre-incubated with cA4 1:1.2 at 4 °C for 30 min; hanging drop, 25 °C; pre-cleavage state with cA4 bound; homodimer
[3] = target: the molecule itself; experiment: crystal structure; TtCsm6 K137A (13 mg/mL) alone; hanging drop, 25 °C; apo state, no metal ion in the HEPN domain; homodimer

Nc1ncnc2c1ncn2[C@@H]1O[C@H](CO)[C@@H](OP(=O)(O)OC[C@H]2O[C@@H](n3cnc4c(N)ncnc43)[C@@H]3OP(=O)(O)O[C@@H]32)[C@H]1O [A2 > P]
crystal structure 1.81 Å (co-crystallised with cA4) (TtCsm6): cA4 in the CARF domain was cleaved into two A2 > P molecules

B1: Thermus thermophilus (Tt) Csm6, wild type (enzyme)
chain: T1 sequence (Q53W17 1-464)
notes: Csm6 of Thermus thermophilus, GenBank ID 81626039; synthesized cDNA in a modified pET vector; Crystallised after pre-incubation with cA4, which was cleaved to two A2>P in the crystal (post-cleavage state); Homodimer in the crystal; also called WT; source: E. coli Rosetta (DE3), purified (Ni-NTA, 15Q, Superdex 200); not shown: His6, N-terminal, cleaved
binding result [1]: binds

B2: TtCsm6 Y161A mutant (enzyme, Thermus thermophilus)
chain: T1 sequence (Q53W17 1-464) with Y161A
notes: Csm6 of Thermus thermophilus, GenBank ID 81626039, with Y161A; Crystallised with uncleaved cA4 (pre-cleavage state); Homodimer in the crystal; source: E. coli Rosetta (DE3), purified (Ni-NTA, 15Q, Superdex 200); not shown: His6, N-terminal, cleaved
binding result [2]: binds

B3: TtCsm6 K137A mutant (enzyme, Thermus thermophilus)
chain: T1 sequence (Q53W17 1-464) with K137A
notes: Csm6 of Thermus thermophilus, GenBank ID 81626039, with K137A; Homodimer in the crystal; also called apo-TtCsm6 (Ni-free structure); source: E. coli Rosetta (DE3), purified (Ni-NTA, 15Q, Superdex 200); not shown: His6, N-terminal, cleaved
binding result [3]: binds
